Reference: publication PMC10593839, “The liver microenvironment orchestrates FGL1-mediated immune escape and progression of metastatic colorectal cancer” (Nature Communications, 2023)

Molecular target: T1, recombinant hLAG-3 (lymphocyte activating 3) (human, UniProt P18627 23-450)
T1 construct: Bought recombinant protein; source: bought: ABclonal Technology
T1 sequence (looked up): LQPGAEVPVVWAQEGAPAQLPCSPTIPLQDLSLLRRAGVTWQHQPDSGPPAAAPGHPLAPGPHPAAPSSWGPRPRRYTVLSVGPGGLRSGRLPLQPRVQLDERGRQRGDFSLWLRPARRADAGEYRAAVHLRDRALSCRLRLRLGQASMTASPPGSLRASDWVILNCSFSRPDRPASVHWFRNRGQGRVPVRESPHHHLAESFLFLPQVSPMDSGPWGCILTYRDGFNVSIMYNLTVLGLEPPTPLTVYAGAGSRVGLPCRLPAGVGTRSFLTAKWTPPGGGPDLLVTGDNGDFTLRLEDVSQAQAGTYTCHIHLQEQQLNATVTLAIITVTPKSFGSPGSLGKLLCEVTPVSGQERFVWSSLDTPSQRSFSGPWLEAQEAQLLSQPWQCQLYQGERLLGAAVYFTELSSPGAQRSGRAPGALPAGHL
Assay: ELISA; recombinant hLAG-3 (1 μg/mL) coated on ELISA microwells; different amounts of recombinant hFGL1 incubated for 1 h; detected with HRP-conjugated anti-hFGL1 antibody, OD 450 nm
Settings: both partners purified

B1: recombinant hFGL1 (fibrinogen-like protein 1) (ligand, human, UniProt Q08830 23-312, looked up)
chain: LEDCAQEQMRLRAQVRLLETRVKQQQVKIKQLLQENEVQFLDKGDENTVIDLGSKRQYADCSEIFNDGYKLSGFYKIKPLQSPAEFSVYCDMSDGGGWTVIQRRSDGSENFNRGWKDYENGFGNFVQKHGEYWLGNKNLHFLTTQEDYTLKIDLADFEKNSRYAQYKNFKVGDEKNFYELNIGEYSGTAGDSLAGNFHPEVQWWASHQRMKFSTWDRDHDNYEGNCAEEDQSGWWFNRCHSANLNGVYYSGPYTAKTDNGIVWYTWHGWWYSLKSVVMKIRPNDFIPNVI
notes: fibrinogen-like protein 1 (FGL1), human, recombinant; Bought recombinant protein; also called HFREP1; source: bought: ABclonal Technology
B1: binds.
